Test results taken from patent EP4814000A1.
Like-named read-outs stand apart in the source and are kept apart here.

What was measured:
003m-P215S (RSV) [1] = experiment: flow cytometry, Expi293F cells, mRNA-LNP (RL151)
003m-P215S-1×GCN4t (RSV) [2] = experiment: flow cytometry, Expi293F cells, mRNA-LNP (RL151)
003m-P215S-S-3N [3] = experiment: flow cytometry, Expi293F cells, mRNA-LNP (RL151)
003m-P215S-ΔF111 (RSV) = experiment: flow cytometry, Expi293F cells, mRNA-LNP (RL151)
[4] = target: 003m-P215S-ΔF111-1×GCN4t (RSV); experiment: flow cytometry, Expi293F cells, mRNA-LNP (RL151)
003m-P215S-ΔF111-S-3N = experiment: flow cytometry, Expi293F cells, mRNA-LNP (RL151)
003m-P215S (RSV) [5] = experiment: flow cytometry, Expi293F cells, Lipofectamine 2000-mRNA
003m-P215S-2×GCN4t (RSV) [6] = experiment: as above
003M-P215S-L (RSV) = experiment: as above
003M-P215S-L-3N (RSV) = experiment: as above
003M-P215S-S (RSV) = experiment: as above
003m-P215S (RSV) [7] = experiment: as above; remark: listed apart in the source
003m-P215S-2×GCN4t (RSV) [8] = experiment: as above; remark: listed apart in the source
003m-P215S-S-3N [9] = experiment: as above
[10] = target: 003m-P215S-1×Fibritin (RSV); experiment: as above
[11] = target: 003m-P215S-1×Fibritin-1N (RSV); experiment: as above
003m-P215S-1×GCN4t (RSV) [12] = experiment: as above
[13] = target: 003m-P215S-1×GCN4t-1,2,3N; experiment: as above
003m-P215S-1×GCN4t-1,2N = experiment: as above
003m-P215S-1×GCN4t-1,3N = experiment: as above
003m-P215S-1×GCN4t-1N = experiment: as above
003m-P215S-1×GCN4t-2,3N = experiment: as above
003m-P215S-1×GCN4t-2N = experiment: as above
003m-P215S-1×GCN4t-3N = experiment: as above
003m-P215S-1×GCN4t (RSV) [14] = experiment: as above; remark: listed apart in the source
[15] = target: 003m-P215S-DELL-1×GCN4t (RSV); experiment: as above
[16] = target: 003m-P215S-KST-1×GCN4t (RSV); experiment: as above
[17] = target: 003m-P215S-NAG-1×GCN4t (RSV); experiment: as above
003m-P215S-1×GCN4t (RSV) [18] = experiment: as above; remark: listed apart in the source
[19] = target: 007m-Cys-P215S-1×GCN4t (RSV); experiment: as above
[20] = target: 008m-Cys-P215S-1×GCN4t (RSV); experiment: as above
[21] = target: 009m-Cys-P215S-1×GCN4t (RSV); experiment: as above
[22] = target: 010m-Cys-P215S-1×GCN4t (RSV); experiment: as above
011m-Cys-P215S-1×GCN4t = experiment: as above
012m-Cys-P215S-1×GCN4t = experiment: as above
013m-Cys-P215S-1×GCN4t = experiment: as above
[23] = target: RSV B-003m-P215S-1×GCN4t-F190S (RSV B); experiment: flow cytometry, Expi293F cells, Lipofectamine 2000-mRNA; mRNA RQ3
[24] = target: RSV B-003m-P215S-1×GCN4t-G46S (RSV B); experiment: as above
003m-P215S-1×GCN4t (RSV) [25] = experiment: flow cytometry, Expi293F cells, Lipofectamine 2000-mRNA; row 003m-P215S-1×GCN4t
003m-P215S-1×GCN4t (RSV) [26] = experiment: flow cytometry, Expi293F cells, Lipofectamine 2000-mRNA; row 003m-P215S-1×GCN4t-opti3
003m-P215S-1×GCN4t (RSV) [27] = experiment: flow cytometry, Expi293F cells, Lipofectamine 2000-mRNA; row 003m-P215S-1×GCN4t (ORIG)

With AM14-AF488 (antibody) the MFI (003m-P215S (RSV) [1]) was 20000, the MFI (003m-P215S-1×GCN4t (RSV) [2]) was 4180 and the MFI (003m-P215S-S-3N [3]) was 5920. For the same substance, the MFI (003m-P215S-ΔF111 (RSV)) was 45200, the MFI [4] was 821 and the MFI (003m-P215S-ΔF111-S-3N) was 49100. The MFI (003m-P215S (RSV) [5]) was 338000, the MFI (003m-P215S-2×GCN4t (RSV) [6]) was 2680 and the MFI (003M-P215S-L (RSV)) was 4540. For the same substance, the MFI (003M-P215S-L-3N (RSV)) was 17500, the MFI (003M-P215S-S (RSV)) was 5620 and the MFI (003m-P215S (RSV) [7]) was 90100. For the same substance, the MFI (003m-P215S-2×GCN4t (RSV) [8]) was 1890, the MFI (003m-P215S-S-3N [9]) was 42400 and the MFI [10] was 22300. For the same substance, the MFI [11] was 242000, the MFI (003m-P215S-1×GCN4t (RSV) [12]) was 4870 and the MFI [13] was 89600. The MFI (003m-P215S-1×GCN4t-1,2N) was 58400, the MFI (003m-P215S-1×GCN4t-1,3N) was 71000 and the MFI (003m-P215S-1×GCN4t-1N) was 37400. For the same substance, the MFI (003m-P215S-1×GCN4t-2,3N) was 39100, the MFI (003m-P215S-1×GCN4t-2N) was 28800 and the MFI (003m-P215S-1×GCN4t-3N) was 25100. It also gave an MFI (003m-P215S-1×GCN4t (RSV) [14]) of 21600, an MFI [15] of 31400 and an MFI [16] of 33800. For the same substance, the MFI [17] was 45700, the MFI (003m-P215S-1×GCN4t (RSV) [18]) was 6700 and the MFI [19] was 7680. For the same substance, the MFI [20] was 9780, the MFI [21] was 6450 and the MFI [22] was 8650. It also gave an MFI (011m-Cys-P215S-1×GCN4t) of 7710, an MFI (012m-Cys-P215S-1×GCN4t) of 9390 and an MFI (013m-Cys-P215S-1×GCN4t) of 7930. The MFI [23] was 11200, the MFI [24] was 4100 and the MFI (003m-P215S-1×GCN4t (RSV) [25]) was 30100. The MFI (003m-P215S-1×GCN4t (RSV) [26]) was 3430 and the MFI (003m-P215S-1×GCN4t (RSV) [27]) was 4150.

With D25-AF488 (antibody) the MFI (003m-P215S (RSV) [1]) was 16400, the MFI (003m-P215S-1×GCN4t (RSV) [2]) was 3880 and the MFI (003m-P215S-S-3N [3]) was 6730. It also gave an MFI (003m-P215S-ΔF111 (RSV)) of 37300, an MFI [4] of 682 and an MFI (003m-P215S-ΔF111-S-3N) of 44800. For the same substance, the MFI (003m-P215S (RSV) [5]) was 270000, the MFI (003m-P215S-2×GCN4t (RSV) [6]) was 5120 and the MFI (003M-P215S-L (RSV)) was 5820. For the same substance, the MFI (003M-P215S-L-3N (RSV)) was 23400, the MFI (003M-P215S-S (RSV)) was 8920 and the MFI (003m-P215S (RSV) [7]) was 77200. For the same substance, the MFI (003m-P215S-2×GCN4t (RSV) [8]) was 2150, the MFI (003m-P215S-S-3N [9]) was 48800 and the MFI [10] was 23000. The MFI [11] was 235000, the MFI (003m-P215S-1×GCN4t (RSV) [12]) was 10400 and the MFI [13] was 147000. The MFI (003m-P215S-1×GCN4t-1,2N) was 100000, the MFI (003m-P215S-1×GCN4t-1,3N) was 122000 and the MFI (003m-P215S-1×GCN4t-1N) was 59400. For the same substance, the MFI (003m-P215S-1×GCN4t-2,3N) was 70700, the MFI (003m-P215S-1×GCN4t-2N) was 54000 and the MFI (003m-P215S-1×GCN4t-3N) was 43400. It also gave an MFI (003m-P215S-1×GCN4t (RSV) [14]) of 32800, an MFI [15] of 35700 and an MFI [16] of 31600. For the same substance, the MFI [17] was 33900, the MFI (003m-P215S-1×GCN4t (RSV) [18]) was 12200 and the MFI [19] was 12800. For the same substance, the MFI [20] was 15700, the MFI [21] was 11500 and the MFI [22] was 13400. The MFI (011m-Cys-P215S-1×GCN4t) was 10300, the MFI (012m-Cys-P215S-1×GCN4t) was 15800 and the MFI (013m-Cys-P215S-1×GCN4t) was 14600. It also gave an MFI [23] of 13100, an MFI [24] of 4220 and an MFI (003m-P215S-1×GCN4t (RSV) [25]) of 54200. For the same substance, the MFI (003m-P215S-1×GCN4t (RSV) [26]) was 4990 and the MFI (003m-P215S-1×GCN4t (RSV) [27]) was 8390.
